Test [1] concerns the target T1, human sodium-dependent phosphate transporter 2B (NaPi2b) (human, UniProt O95436 1-690).
T1 construct: UniProt ID is given as 095436 [sic]; also called hNaPi2b; Hu NaPi2b
T1 sequence: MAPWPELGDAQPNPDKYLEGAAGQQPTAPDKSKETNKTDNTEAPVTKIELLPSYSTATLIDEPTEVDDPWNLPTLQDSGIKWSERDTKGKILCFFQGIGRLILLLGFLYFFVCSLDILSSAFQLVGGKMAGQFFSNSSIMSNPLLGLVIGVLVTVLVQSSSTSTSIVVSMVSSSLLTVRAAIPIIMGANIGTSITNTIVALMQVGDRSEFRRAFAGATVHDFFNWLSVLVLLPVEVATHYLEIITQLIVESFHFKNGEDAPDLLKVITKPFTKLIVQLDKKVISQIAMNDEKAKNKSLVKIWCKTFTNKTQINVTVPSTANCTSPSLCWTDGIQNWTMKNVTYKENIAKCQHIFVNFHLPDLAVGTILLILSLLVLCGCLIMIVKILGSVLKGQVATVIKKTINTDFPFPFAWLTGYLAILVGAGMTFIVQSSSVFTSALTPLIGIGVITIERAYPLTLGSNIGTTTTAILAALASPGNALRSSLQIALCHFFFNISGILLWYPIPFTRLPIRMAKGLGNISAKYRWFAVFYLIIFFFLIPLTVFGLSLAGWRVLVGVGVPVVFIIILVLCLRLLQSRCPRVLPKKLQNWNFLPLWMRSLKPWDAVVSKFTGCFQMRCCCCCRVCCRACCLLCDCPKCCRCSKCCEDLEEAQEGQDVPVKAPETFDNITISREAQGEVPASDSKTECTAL
As to the kind of experiment: flow cytometry, IGROV-1 cells (endogenous NaPi2b), 24 h at 4 °C. The method, then:
(§1) IGROV-1 cells express endogenous NaPi2b at a high level.
(§2) Briefly, cells were seeded at 50,000 cells/well in conical-bottom 96-well plates and treated with test antibody for 24 hours at 4° C. to prevent internalization. […] Following incubation, cells were washed and stained with anti-Human IgG Fc AF647 conjugate (Jackson Immuno Research Labs, West Grove, PA; Cat. No. 109-605-098) at 4° C. for 30 min. Following incubation and washing, fluorescence was detected by flow cytometry on a BD LSRFortessa™ Cell Analyzer (BD Biosciences, Franklin Lake, NJ) with 1,000 minimum events collected per well. The AF647/APC-A GeoMean (fluorescence signal geometric mean, proportional to anti-Human AF647 binding) was calculated for the live cell population using FlowJo™ Version 10.8.1 (BD Biosciences, Franklin Lake, NJ) and plotted for each test antibody using GraphPad Prism Version 9 (GraphPad Software, San Diego, CA).

In test [2] the target is T1, human sodium-dependent phosphate …. Kind of test: flow cytometry, IGROV-1 cells (endogenous NaPi2b), 24 h at 4 °C; apparent Kd. As for the experimental part:
as §1, §2

Test [3] has the same target. Kind of test: flow cytometry on IGROV-1 cells (endogenous NaPi2b), 24 h at 4 C, anti-human IgG Fc AF647 detection. The method, then:
as §1, §2

Test [4] has the same target. As to the kind of experiment: KinExA, IGROV-1 cells (endogenous NaPi2b) as titrant, monovalent antibody constant at 50 and 500 pM, N-curve analysis. The method, then:
The cell-binding assay was set up using the antibody constructs or variants as constant binding partner at two different concentrations of 50 pM and 500 pM. For the titration curve with antibody variants fixed at 50 pM, at least 10 million IGROV-1 cells were used as titrant. For the titration curve with antibody variants fixed at 500 pM, at least 5 million cells were used as titrant. The antibody variants and cells were mixed in PBS pH 7.4, 1 mg/mL BSA, 0.2% NaN₃ and incubated at 4° C. for 7 days with gentle rotation until equilibrium was reached. After incubation, the mixture of antibody variants and cells was centrifuged to separate the cells from the unbound free antibody variants. The free antibody variants were loaded onto the KinExA 3200 (Sapidyne, Boise, Idaho) with biotinylated—anti-human IgG PMMA as solid phase and 0.5 μg/mL of Alexa 647 goat anti-human IgG (Jackson ImmunoResearch, West Grove, PA) as detection antibody.
N-curve analysis was used to calculate the affinity and receptor expression level with the concentrations of antibody variant as reference point.

For test [5] the target is unchanged. Kind of test: flow cytometry, HEK293-6e cells transfected with human NaPi2b. As for the experimental part: (§3) The binding cross-reactivity of humanized antibody variant v29456 to human, cynomolgus and mouse NaPi2b was assessed by flow cytometry using HEK293-6e transfected cells.
(§4) Briefly, HEK293-6e cells were transfected for ˜24 hours to transiently express human NaPi2b, cynomolgus or mouse NaPi2b, at 1 μg of DNA per 1 million cells. Following transfection, 50,000 cells per well were seeded in V-bottom 96-well plates and incubated with 200 nM of primary antibody for 18-24 hours at 4° C. to prevent internalization. Post-incubation, cells were washed and stained with anti-Human IgG Fc AF647 conjugate (Jackson Immuno Research Labs, West Grove, PA, Cat. No. 109-605-098, Lot. No. 124868) at 4° C. for 1 hour. Following staining and washing, fluorescence was detected by flow cytometry on BD LSRFortessa™ Cell Analyzer (BD Biosciences, Franklin Lake, NJ) with 10,000 minimum events collected per well. The AF647/APC-A GeoMean (fluorescence signal geometric mean, proportional to anti-Human AF647 binding) was calculated for the live singlet cell population for each primary antibody using FlowJo™ v8 software (BD Biosciences, Franklin Lake, NJ). The Bmax and Kd of each primary antibody were calculated using GraphPad Prism Version 9 (GraphPad Software, San Diego, CA)

The target is the same in test [6]. As to the kind of experiment: flow cytometry, IGROV-1 cells (endogenous NaPi2b); apparent Kd. As for the experimental part:
as §2
(§5) The ability of the humanized antibody variants v38591 and v29456 to bind to NaPi2b expressed on cells was assessed on endogenous NaPi2b-expressing tumor cell lines IGROV-1 (ovarian adenocarcinoma) and TOV-21G (ovarian carcinoma) by flow cytometry.
(§6) Cellular binding was performed according to methods described in Example 13.

Test [7] shares this target. Kind of test: flow cytometry, TOV-21G cells (endogenous NaPi2b); apparent Kd. As for the experimental part: as §2, §5, §6
The target of test [8] is T2, cynomolgus monkey NaPi2b (cynomolgus monkey, UniProt O95436 1-690 (human entry)).
T2 construct: Transiently expressed on HEK293-6e cells; also called Cyno NaPi2b
T2 chain: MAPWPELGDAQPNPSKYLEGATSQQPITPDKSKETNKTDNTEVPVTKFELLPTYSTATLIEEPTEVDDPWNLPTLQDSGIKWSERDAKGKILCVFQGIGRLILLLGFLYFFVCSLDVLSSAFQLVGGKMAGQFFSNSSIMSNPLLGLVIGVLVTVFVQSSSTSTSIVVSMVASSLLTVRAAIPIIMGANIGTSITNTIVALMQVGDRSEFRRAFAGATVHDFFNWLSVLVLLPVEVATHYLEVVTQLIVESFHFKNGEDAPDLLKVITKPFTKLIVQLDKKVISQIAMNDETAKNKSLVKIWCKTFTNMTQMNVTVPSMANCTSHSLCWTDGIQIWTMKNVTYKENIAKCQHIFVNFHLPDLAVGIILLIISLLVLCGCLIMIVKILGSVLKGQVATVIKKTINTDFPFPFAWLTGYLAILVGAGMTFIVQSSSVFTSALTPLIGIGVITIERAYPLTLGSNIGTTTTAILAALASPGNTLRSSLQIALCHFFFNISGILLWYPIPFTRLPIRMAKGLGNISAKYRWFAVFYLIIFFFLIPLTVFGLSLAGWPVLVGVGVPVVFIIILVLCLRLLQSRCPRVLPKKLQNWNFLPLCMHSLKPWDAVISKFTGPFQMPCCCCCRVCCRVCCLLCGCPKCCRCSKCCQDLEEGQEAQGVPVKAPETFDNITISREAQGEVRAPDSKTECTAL
Kind of test: flow cytometry, HEK293-6e cells transfected with cynomolgus NaPi2b. The method, then:
as §3, §4

For test [9], the target named is T1, human sodium-dependent phosphate …. As to the kind of experiment: flow cytometry, HEK293-6e cells transfected with human NaPi2b; apparent Kd. The method, then:
as §3, §4

The target is the same in test [10]. The description is as above. The method, then: The binding cross-reactivity of humanized antibody variant v38591 to human NaPi2b, NaPi2a, and NaPi2c was assessed by flow cytometry using HEK293-6e transfected cells.
Following transfection, cells were seeded at 50,000 cells/well in conical-bottom 96-well plates and treated with test antibody for 24 hours at 4° C. to prevent internalization. Following incubation, cells were washed and stained with anti-Human IgG Fc AF647 conjugate (Jackson Immuno Research Labs, West Grove, PA; Cat. No. 109-605-098) or anti-Rabbit IgG F(ab″)2 AF647 conjugate (Jackson Immuno Research Labs, West Grove, PA; Cat. No. 111-605-047). Following incubation and washing, fluorescence was detected by flow cytometry on a BD LSRFortessa™ Cell Analyzer (BD Biosciences, Franklin Lake, NJ) with 1,000 minimum events collected per well. The AF647/APC-A GeoMean (fluorescence signal geometric mean, proportional to anti-Human AF647 binding) was calculated for the live cell population using FlowJo™ Version 10.8.1 (BD Biosciences, Franklin Lake, NJ) and plotted for each test antibody using GraphPad Prism Version 9 (GraphPad Software, San Diego, CA).
This is another data set of the same source.

The target in test [11] is T2, cynomolgus monkey NaPi2b. Kind of test: flow cytometry, HEK293-6e cells transfected with cynomolgus NaPi2b; apparent Kd. The method, then: as §3, §4
Test [12] concerns the target T1, human sodium-dependent phosphate …. Kind of test: flow cytometry on IGROV-1 cells (endogenous NaPi2b), 24 h at 4 C, anti-human IgG Fc AF647 detection. As for the experimental part: as §2, §5, §6
The source holds these as a separate data set.

Test [13] shares this target. As to the kind of experiment: flow cytometry on TOV-21G cells (endogenous NaPi2b), 24 h at 4 C, anti-human IgG Fc AF647 detection. The method, then:
as §2, §5, §6

B1: v23855, parental mouse-human chimeric anti-NaPi2b IgG1/kappa antibody (antibody, V domains shown)
VH: QAYLQQSGAELVRPGASVKMSCKASGFTFTSYNVHWVKQTPRQGLEWIAAISPGNGDLSYNQRFKDKATLTVDRSSSTAYMQLSGLTSEDSAVYFCARGRTGMGAVDYWGQGTSVTVSS
VL: DVQMTQTASSLSASLGDRVTISCRASQDVYSYLNWYQQKPHGTVKLLIYYTSRLQSGVPSRFTGSGSGTDYSLTISNLEPEDIATYYCQQYNIFPWTFGGGTKLEIKR
notes: Full-size antibody: mouse VH/VL appended to human IGHG1*01 CH1-hinge-CH2-CH3 (ends at G446) and IGKC*01; also called parental chimeric
Consider B1, for which, in [1], the “Bmax (MFI)” value was 43700 MFI. Further, the Kd in test [2] was 0.84 nM. Further, the “EC50 (read off the curve)” value in test [3] was approximately 0.8 nM.

B2: v29814, monovalent format of parental chimeric variant 23855 (antibody, V domains shown)
VH: B1 VH
VL: DVQMTQTASSLSASLGDRVTISCRASQDVYSYLNWYQQKPHGTVKLLIYYTSRLQSGVPSRFTGSGSGTDYSLTISNLEPEDIATYYCQQYNIFPWTFGGGTKLEIK
notes: Only said to be the monovalent format of v23855; it is captured and detected with anti-human IgG; also called v29814 (parental chimeric)
The molecule B2 displayed a Kd in test [4] of 0.15 nM.

B3: v18993, reference anti-NaPi2b antibody lifastuzumab (antibody, human IgG1, kappa)
heavy 1: GEVQLVESGGGLVQPGGSLRLSCAASGFSFSDFAMSWVRQAPGKGLEWVATIGRVAFHTYYPDSMKGRFTISRDNSKNTLYLQMNSLRAEDTAVYYCARHRGFDVGHFDFWGQGTLVTVSSASTKGPSVFPLAPSSKSTSGGTAALGCLVKDYFPEPVTVSWNSGALTSGVHTFPAVLQSSGLYSLSSVVTVPSSSLGTQTYICNVNHKPSNTKVDKKVEPKSCDKTHTCPPCPAPELLGGPSVFLFPPKPKDTLMISRTPEVTCVVVDVSHEDPEVKFNWYVDGVEVHNAKTKPREEQYNSTYRVVSVLTVLHQDWLNGKEYKCKVSNKALPAPIEKTISKAKGQPREPQVYVYPPSRDELTKNQVSLTCLVKGFYPSDIAVEWESNGQPENNYKTTPPVLDSDGSFALVSKLTVDKSRWQQGNVFSCSVMHEALHNHYTQKSLSLSPG
heavy 2: not shown
light: GDIQMTQSPSSLSASVGDRVTITCRSSETLVHSSGNTYLEWYQQKPGKAPKLLIYRVSNRFSGVPSRFSGSGSGTDFTLTISSLQPEDFATYYCFQGSFNPLTFGQGTKVEIKRTVAAPSVFIFPPSDEQLKSGTASVVCLLNNFYPREAKVQWKVDNALQSGNSQESVTEQDSKDSTYSLSSTLTLSKADYEKHKVYACEVTHQGLSSPVTKSFNRGEC
notes: Two different heavy chain clones (CL_#11677, CL_#11678)
For B3, the “Bmax (APC-A GeoMean)” value stood at 1610 APC-A GeoMean in test [5] and 1560 APC-A GeoMean with cynomolgus monkey NaPi2b [8]. The Kd came to 0.81 nM in [6]; 0.67 nM in [7]; 1.22 nM in test [9]; 5.76 nM in test [10]; 6.27 nM with cynomolgus monkey NaPi2b [11]. Further, the “EC50 (read off the curve)” value in test [12] is approximately 0.8 nM; in [13], approximately 0.7 nM.

Values taken from patent publication US20250277030A1 (Zymeworks, published 2025).
